Measured values taken from PMC7020226, “Enzymatic Properties of Recombinant Phospho-Mimetic Photorespiratory Glycolate Oxidases from Arabidopsis thaliana and Zea mays” (Plants, 2019).

Columns and labels:
Settings in all cases: 50 mM Tris-HCl pH 8.0, 0.1 mM FMN, 30 °C
[1] = substrate: O=C(O)CO; test: purified protein
[2] = substrate: C[C@H](O)C(=O)O; test: purified protein
[3] = substrate: CCCCCCC(O)C(=O)O; test: H2O2 detection, horseradish peroxidase / o-dianisidine coupled assay; format: biochemical, Arabidopsis thaliana
[4] = substrate: CCCCCCC(O)C(=O)O; test: as above; format: biochemical, Zea mays
Excerpt: H2O2 detection, horseradish peroxidase / o-dianisidine coupled assay on ZmGO1

B1: AtGOX1 (Arabidopsis thaliana; T265D) (protein)
chain: MEITNVTEYDAIAKQKLPKMVYDYYASGAEDQWTLQENRNAFARILFRPRILIDVSKIDMTTTVLGFKISMPIMVAPTAMQKMAHPDGEYATARAASAAGTIMTLSSWATSSVEEVASTGPGIRFFQLYVYKNRNVVEQLVRRAERAGFKAIALTVDTPRLGRRESDIKNRFTLPPNLTLKNFEGLDLGKMDEANDSGLASYVAGQIDRTLSWKDVQWLQTITKLPILVKGVLTGEDARIAIQAGAAGIIVSNHGARQLDYVPADISALEEVVKATQGRIPVFLDGGVRRGTDVFKALALGASGIFIGRPVVFSLAAEGEAGVRKVLQMLRDEFELTMALSGCRSLKEISRNHITTEWDTPRPSARL
B1 was tested, and the Km [1] was 531 ± 50 µM and the kcat [1] was 0.14 ± 0.06 s⁻¹.

B2: AtGOX1 (Arabidopsis thaliana) (protein)
chain: MEITNVTEYDAIAKQKLPKMVYDYYASGAEDQWTLQENRNAFARILFRPRILIDVSKIDMTTTVLGFKISMPIMVAPTAMQKMAHPDGEYATARAASAAGTIMTLSSWATSSVEEVASTGPGIRFFQLYVYKNRNVVEQLVRRAERAGFKAIALTVDTPRLGRRESDIKNRFTLPPNLTLKNFEGLDLGKMDEANDSGLASYVAGQIDRTLSWKDVQWLQTITKLPILVKGVLTGEDARIAIQAGAAGIIVSNHGARQLDYVPATISALEEVVKATQGRIPVFLDGGVRRGTDVFKALALGASGIFIGRPVVFSLAAEGEAGVRKVLQMLRDEFELTMALSGCRSLKEISRNHITTEWDTPRPSARL
notes: full length (367 residues), N-terminal His-tag, pET28a, expressed in Escherichia coli
For B2, the Km [2] was 1664 ± 293 µM, the kcat [2] was 9.09 s⁻¹ and the Km [1] was 210 ± 90 µM. It also gave a kcat [1] of 11.12 ± 3.08 s⁻¹, a Km [3] of 757 ± 82 µM and a kcat [3] of 5.95 ± 0.58 s⁻¹.

B3: AtGOX1 (Arabidopsis thaliana; T4D) (protein)
chain: MEIDNVTEYDAIAKQKLPKMVYDYYASGAEDQWTLQENRNAFARILFRPRILIDVSKIDMTTTVLGFKISMPIMVAPTAMQKMAHPDGEYATARAASAAGTIMTLSSWATSSVEEVASTGPGIRFFQLYVYKNRNVVEQLVRRAERAGFKAIALTVDTPRLGRRESDIKNRFTLPPNLTLKNFEGLDLGKMDEANDSGLASYVAGQIDRTLSWKDVQWLQTITKLPILVKGVLTGEDARIAIQAGAAGIIVSNHGARQLDYVPATISALEEVVKATQGRIPVFLDGGVRRGTDVFKALALGASGIFIGRPVVFSLAAEGEAGVRKVLQMLRDEFELTMALSGCRSLKEISRNHITTEWDTPRPSARL
Protein B3 has a Km [1] of 151 ± 44 µM and a kcat [1] of 0.61 ± 0.46 s⁻¹.

B4: AtGOX1 (Arabidopsis thaliana; T158V) (protein)
chain: MEITNVTEYDAIAKQKLPKMVYDYYASGAEDQWTLQENRNAFARILFRPRILIDVSKIDMTTTVLGFKISMPIMVAPTAMQKMAHPDGEYATARAASAAGTIMTLSSWATSSVEEVASTGPGIRFFQLYVYKNRNVVEQLVRRAERAGFKAIALTVDVPRLGRRESDIKNRFTLPPNLTLKNFEGLDLGKMDEANDSGLASYVAGQIDRTLSWKDVQWLQTITKLPILVKGVLTGEDARIAIQAGAAGIIVSNHGARQLDYVPATISALEEVVKATQGRIPVFLDGGVRRGTDVFKALALGASGIFIGRPVVFSLAAEGEAGVRKVLQMLRDEFELTMALSGCRSLKEISRNHITTEWDTPRPSARL
With B4 the Km [1] was 100 ± 19 µM and the kcat [1] was 2.36 ± 0.47 s⁻¹.

B5: AtGOX2 (Arabidopsis thaliana; T265D) (protein)
chain: MEITNVTEYDAIAKAKLPKMVYDYYASGAEDQWTLQENRNAFARILFRPRILIDVNKIDMATTVLGFKISMPIMVAPTAFQKMAHPDGEYATARAASAAGTIMTLSSWATSSVEEVASTGPGIRFFQLYVYKNRKVVEQLVRRAEKAGFKAIALTVDTPRLGRRESDIKNRFTLPPNLTLKNFEGLDLGKMDEANDSGLASYVAGQIDRTLSWKDIQWLQTITNMPILVKGVLTGEDARIAIQAGAAGIIVSNHGARQLDYVPADISALEEVVKATQGRVPVFLDGGVRRGTDVFKALALGASGIFIGRPVVFALAAEGEAGVKKVLQMLRDEFELTMALSGCRSLSEITRNHIVTEWDTPRHLPRL
In the case of B5, the Km [1] is reported as 388 ± 159 µM and the kcat [1] is reported as 2.06 ± 1.09 s⁻¹.

B6: AtGOX2 (Arabidopsis thaliana) (protein)
chain: MEITNVTEYDAIAKAKLPKMVYDYYASGAEDQWTLQENRNAFARILFRPRILIDVNKIDMATTVLGFKISMPIMVAPTAFQKMAHPDGEYATARAASAAGTIMTLSSWATSSVEEVASTGPGIRFFQLYVYKNRKVVEQLVRRAEKAGFKAIALTVDTPRLGRRESDIKNRFTLPPNLTLKNFEGLDLGKMDEANDSGLASYVAGQIDRTLSWKDIQWLQTITNMPILVKGVLTGEDARIAIQAGAAGIIVSNHGARQLDYVPATISALEEVVKATQGRVPVFLDGGVRRGTDVFKALALGASGIFIGRPVVFALAAEGEAGVKKVLQMLRDEFELTMALSGCRSLSEITRNHIVTEWDTPRHLPRL
notes: full length, N-terminal His-tag, pET28a, expressed in Escherichia coli
B6 gave a Km [2] of 2094 ± 791 µM, a kcat [2] of 6.81 s⁻¹ and a Km [1] of 279 ± 30 µM. For the same protein, the kcat [1] was 10.93 ± 3.48 s⁻¹, the Km [3] was 487 ± 99 µM and the kcat [3] was 3.78 ± 1.26 s⁻¹.

B7: AtGOX2 (Arabidopsis thaliana; T158V) (protein)
chain: MEITNVTEYDAIAKAKLPKMVYDYYASGAEDQWTLQENRNAFARILFRPRILIDVNKIDMATTVLGFKISMPIMVAPTAFQKMAHPDGEYATARAASAAGTIMTLSSWATSSVEEVASTGPGIRFFQLYVYKNRKVVEQLVRRAEKAGFKAIALTVDVPRLGRRESDIKNRFTLPPNLTLKNFEGLDLGKMDEANDSGLASYVAGQIDRTLSWKDIQWLQTITNMPILVKGVLTGEDARIAIQAGAAGIIVSNHGARQLDYVPATISALEEVVKATQGRVPVFLDGGVRRGTDVFKALALGASGIFIGRPVVFALAAEGEAGVKKVLQMLRDEFELTMALSGCRSLSEITRNHIVTEWDTPRHLPRL
B7 gave a Km [1] of 133 ± 83 µM and a kcat [1] of 2.49 ± 0.60 s⁻¹.

B8: AtGOX2 (Arabidopsis thaliana; T4D) (protein)
chain: MEIDNVTEYDAIAKAKLPKMVYDYYASGAEDQWTLQENRNAFARILFRPRILIDVNKIDMATTVLGFKISMPIMVAPTAFQKMAHPDGEYATARAASAAGTIMTLSSWATSSVEEVASTGPGIRFFQLYVYKNRKVVEQLVRRAEKAGFKAIALTVDTPRLGRRESDIKNRFTLPPNLTLKNFEGLDLGKMDEANDSGLASYVAGQIDRTLSWKDIQWLQTITNMPILVKGVLTGEDARIAIQAGAAGIIVSNHGARQLDYVPATISALEEVVKATQGRVPVFLDGGVRRGTDVFKALALGASGIFIGRPVVFALAAEGEAGVKKVLQMLRDEFELTMALSGCRSLSEITRNHIVTEWDTPRHLPRL
B8 gave a Km [1] of 390 ± 215 µM and a kcat [1] of 1.40 ± 0.42 s⁻¹.

B9: ZmGO1 (Zea mays) (protein)
chain: MGEITNVMEYQAIAKQKLPKMAYDYYASGAEDEWTLQENREAFSRILFRPRILIDVSKIDMTTTVLGFKISMPIMVAPTAMQKMAHPDGEYATARAAAAAGTIMTLSSWATSSVEEVASTGPGIRFFQLYVYKDRKVVEQLVRRAERAGFKAIALTVDTPRLGRREADIKNRFVLPPHLTLKNFEGLDLGKMDQAADSGLASYVAGQVDRTLSWKDVKWLQTITTLPILVKGVLTAEDTRLAVANGAAGIIVSNHGARQLDYVPATISALEEVVKAARGQLPVFVDGGVRRGTDVFKALALGAAGVFVGRPVVFSLAAAGEAGVSNVLRMLRDEFELTMALSGCTSLAEITRKHIITESDKLSAIPSRL
notes: as for B6
Protein B9 has a Km [4] of 136 ± 19 µM, a kcat [4] of 5.89 ± 0.14 s⁻¹ and a Km [2] of 495 ± 75 µM. For the same protein, the kcat [2] was 10.8 s⁻¹.

B10: ZmGO1 (Zea mays; T159V) (protein)
chain: MGEITNVMEYQAIAKQKLPKMAYDYYASGAEDEWTLQENREAFSRILFRPRILIDVSKIDMTTTVLGFKISMPIMVAPTAMQKMAHPDGEYATARAAAAAGTIMTLSSWATSSVEEVASTGPGIRFFQLYVYKDRKVVEQLVRRAERAGFKAIALTVDVPRLGRREADIKNRFVLPPHLTLKNFEGLDLGKMDQAADSGLASYVAGQVDRTLSWKDVKWLQTITTLPILVKGVLTAEDTRLAVANGAAGIIVSNHGARQLDYVPATISALEEVVKAARGQLPVFVDGGVRRGTDVFKALALGAAGVFVGRPVVFSLAAAGEAGVSNVLRMLRDEFELTMALSGCTSLAEITRKHIITESDKLSAIPSRL
notes: as for B6
B10 gave a Km ([4]; printed as T158V in Table 3) of 48 ± 36 µM and a kcat ([4]; printed as T158V in Table 3) of 3.22 ± 0.39 s⁻¹.
